Consider 30 sequences from the supplement of paper PMC9170038.

Data set [1] concerns MS2 coat protein. Put plainly: apparent KD of MS2 coat protein, switch ON state; designed switch direction (-1 OFF switch, 1 ON switch): -1; higher = weaker reporter binding. The conditions noted are these: FMN input: 0 or 200 uM; Eterna round: R93 (includes R88 designs). In outline:
(§1)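 Apparent KD stands for the median, per design, of fits to normalised cluster binding curves. The curves came from titrating on-chip-transcribed RNA switches on Illumina sequencing clusters with SNAP-549-labelled MS2 coat protein, twofold from 0.7 or 1.5 nM to 3 µM. Buffer was 100 mM Tris-HCl pH 7.5, 80 mM KCl, 4 mM MgCl2, without or with constant ligand.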

For data set [2], the system named is MS2 coat protein. In words: apparent KD of MS2 coat protein, switch OFF state (with FMN for OFF switches, without FMN for ON switches); designed switch direction (-1 OFF switch, 1 ON switch): -1; higher = weaker reporter binding. The conditions noted are these: FMN input: 0 or 200 uM; Eterna round: R93 (includes R88 designs). The gist of the method:
as §1

Turning to “AGAUAGUCAGGAUAUACGAACAAGAAAAAAGACGAGAACGGACAUGAGGAUCACCCAUGUAGAAGGGACUAGCA [Diamond 10]”, the “apparent KD of MS2 coat protein” value stood at 35.6 nM with MS2 coat protein [1] and 30.2 nM with MS2 coat protein [2].

On to “AGAUGACAAGGAUAUACUAGGGAUGAUAGUAGAGAAGAAGAACAUGAGGAUCACCCAUGUAGAAGGUGUAAGAA [JR_Exc002_Sub1702]”, for which the “apparent KD of MS2 coat protein” value in the data set with MS2 coat protein [1] was determined as 70 nM; in the data set with MS2 coat protein [2] it was 61.1 nM.

For the sequence “AGCUAGUCAGGAUAUACAAACAUGUCAAAAGACGUGAAGGAACAUGAGGAUCACCCAUGUAGAAGGGACUAGCA [Web Mod 74% 3]”, the “apparent KD of MS2 coat protein” value in the data set with MS2 coat protein [1] was determined as 21 nM; in the data set on MS2 coat protein [2] it was 19.5 nM.

Consider “AGCUAGUCAGGAUAUACGAACACGUCAAAAGACGUGAAGGGACAUGAGGAUCACCCAUGUAGAAGGGACUAGCA [Mat - Exclusion 2 - JL mod - D24]”, for which the results for the “apparent KD of MS2 coat protein” value with MS2 coat protein [1] and in the data set with MS2 coat protein [2] were 29.8 nM and 114 nM, respectively.

With “AGCUAGUCAGGAUAUACGAACAGGUCAAAAGACGUGAAGGGACAUGAGGAUCACCCAUGUAGAAGGGACUAGCA [Mat - Exclusion 2 - JL mod - D23]”, the “apparent KD of MS2 coat protein” value amounted to 39.6 nM in the data set on MS2 coat protein [1] and 116 nM in the data set on MS2 coat protein [2].

As for “AGCUAGUCAGGAUAUACGAACAGGUGAAAAGACGUAAGGGAACAUGAGGAUCACCCAUGUAGAAGGGACUAGCA [Diamond 53]”, the “apparent KD of MS2 coat protein” value with MS2 coat protein [1] amounted to 91.3 nM; in the data set with MS2 coat protein [2], 99.3 nM.

For the sequence “AGCUAGUCAGGAUAUACGAACAUGUCAAAAGACGUGAAAUAACAUGAGGAUCACCCAUGUAGAAGGGACUAGCA [Mat - Exclusion 2 - JL-Eli mod - D52]”, the entries for the “apparent KD of MS2 coat protein” value with MS2 coat protein [1] and with MS2 coat protein [2] were 17.4 nM and 15.5 nM, respectively.

As for “AGCUAGUCAGGAUAUACGAGAAAGAAAGAAGAAGUGAAGGGACAUGAGGAUCACCCAUGUAGAAGGGACUAGCA [Diamond 27]”, the figures for the “apparent KD of MS2 coat protein” value with MS2 coat protein [1] and with MS2 coat protein [2] were 51.9 nM and 160 nM, respectively.

Regarding “AGGAAACAUGAGGAUCACCCAUGUCAGGAUAUUGGAAAGAAAAGAAAAGAAAGAAGAAUAAGAAGGGACAAGAA [Hor-Aha]”, the “apparent KD of MS2 coat protein” value in the data set with MS2 coat protein [1] stood at 38.7 nM; in the data set with MS2 coat protein [2] it was 25.1 nM.

On to “AGGAAACAUGAGGAUCACCCAUGUGAGGAUAUACAAAAGAAAAGAAAAGAAAGAAGAAGUAGAAGGCACAAGAA [Thesh]”, for which the figures for the “apparent KD of MS2 coat protein” value in the data set with MS2 coat protein [1] and in the data set with MS2 coat protein [2] were 26.2 nM and 29.5 nM, respectively.

As for “AGGUGGUCAGGAUAUGCGUGAAGAAUAAAACAAAUAACAACGCAGAAGGGACAUGAGGAUCACCCAUGUCACCA [May 52]”, the results for the “apparent KD of MS2 coat protein” value with MS2 coat protein [1] and in the data set on MS2 coat protein [2] were 20.7 nM and 16.6 nM, respectively.

“AGUAGAUCAGGAUAUACAUAAAUGAUAAUUAUGUAAUUUCUACAUGAGGAUCACCCAUGUAGAAGGGAUCUACA [Ex2 Design 136: Not so Super Stable 24]”: the “apparent KD of MS2 coat protein” value with MS2 coat protein [1] turned out to be 14.4 nM; in the data set on MS2 coat protein [2], 15.2 nM.

Take “AGUAGAUCAGGAUAUACAUGAAAGAUCAAAAUGUCCAAUAUACAUGAGGAUCACCCAUGUAGAAGGGAUCUACA [Ex2 Design 115: Not so Super Stable 2]”: the “apparent KD of MS2 coat protein” value turned out to be 99.9 nM in the data set with MS2 coat protein [1] and 50.5 nM with MS2 coat protein [2].

“AGUAGUACAGGAUAUACAUGAGGAUCACCCAUGUGAAAAUUAAGUGGCGUACCACAAAGUAGAAGGGUACUACA [Mat - Exclusion 3 - JL mod - D36]”: the “apparent KD of MS2 coat protein” value was found to be 31 nM in the data set with MS2 coat protein [1] and 148 nM in the data set with MS2 coat protein [2].

For “AGUCAUACAGGAUAUACAUGAGGAUCACCCAUGUUUAUCCUAAAAUAAAAAAACUCAUGUAGAAGGGUAUGACA [EX3 214: Super Stable 14]”, the “apparent KD of MS2 coat protein” value in the data set with MS2 coat protein [1] was 13 nM; with MS2 coat protein [2], 31.3 nM.

“AGUCUGAGAGGAUAUACAUAGGAAAAAAAAGUCAGAUCCCUACAUGAGGAUCACCCAUGUAGAAGGCUCUGACA [Ex2 Design 148: Sub-opt 12]”: the “apparent KD of MS2 coat protein” value was determined as 13.9 nM in the data set with MS2 coat protein [1] and 12.6 nM with MS2 coat protein [2].

Consider “AGUUAGCGAGGAUAUACAUGAGGAUCACCCAUGUGAGAGAAAAAAGUGAGAAAUAAAAGUAGAAGGCGCUAACA [Mat - Exclusion 3 - Eli mod - D69]”, for which the results for the “apparent KD of MS2 coat protein” value in the data set with MS2 coat protein [1] and with MS2 coat protein [2] were 38.9 nM and 361 nM, respectively.

Turning to “AGUUGGCGAGGAUAUACAUGAGGAUCACCCAUGUAAAAAAAAAAAAAAAAAACUUCAUGUAGAAGGCGCUGACA [Starry Exclusion 3.4 (biggestlegoheroicafanever round 1 mod)]”, the “apparent KD of MS2 coat protein” value is 85.5 nM with MS2 coat protein [1] and 63.1 nM in the data set with MS2 coat protein [2].

As for “AGUUGGCGAGGAUAUACAUGAGGAUCACCCAUGUGAAAGAAAAAAGUGAGAAAGAAAAGUAGAAGGCGCUGACA [73%, Moding Norbert Elias, 2]”, the “apparent KD of MS2 coat protein” value with MS2 coat protein [1] amounted to 54.7 nM; in the data set on MS2 coat protein [2], 181 nM.

For “AGUUGGCGAGGAUAUACAUGAGGAUCACCCAUGUGAAAUAAUGAAAAAGUAGGGAAAAGUAGAAGGCGCUGACA [73%, Moding Norbert Elias, 20]”, the figures for the “apparent KD of MS2 coat protein” value in the data set with MS2 coat protein [1] and in the data set on MS2 coat protein [2] were 37.7 nM and 143 nM, respectively.

Consider “AGUUGGCGAGGAUAUACAUGAGGAUCACCCAUGUGAAAUCGAGAAAAAAUAGGGAAAAGUAGAAGGCGCUGACA [Ruby 62]”, for which the “apparent KD of MS2 coat protein” value in the data set with MS2 coat protein [1] is 22.5 nM; in the data set with MS2 coat protein [2], 90.6 nM.

For “AGUUGGCGAGGAUAUACAUGAGGAUCACCCAUGUGAGAGAAAAAAGUGAGAAAGAAAAGUAGAAGGCGCGGACA [Ruby 1]”, the “apparent KD of MS2 coat protein” value in the data set on MS2 coat protein [1] was 47.3 nM; with MS2 coat protein [2], 70.4 nM.

Regarding “AGUUGGCGAGGAUAUACAUGAGGAUCACCCAUGUGAGAGUAAAGAGUGAGAAAGAGAAGUAGAAGGCGCUGACA [Ruby 56]”, the “apparent KD of MS2 coat protein” value in the data set on MS2 coat protein [1] was found to be 81.1 nM; in the data set with MS2 coat protein [2], 180 nM.

In the case of “AUAAAACAUGAGGAUCACCCAUGUGAGGAUAUCUAAAAAGAAAGAAAAAAAAAAAAAAAGAGAAGGCACAAUAA [Amethyst 45]”, the “apparent KD of MS2 coat protein” value with MS2 coat protein [1] is 27.7 nM; in the data set on MS2 coat protein [2], 31.8 nM.

With “AUAAACAGAGGAUAUACGCAAAUAAAAGAAAAUAAAGAAACACAUGAGGAUCACCCAUGUAGAAGGCUGGAAAA”, the results for the “apparent KD of MS2 coat protein” value in the data set on MS2 coat protein [1] and in the data set on MS2 coat protein [2] were 21.1 nM and 16.7 nM, respectively.

For “AUAAAGUGAGGAUAUCGAAGACUGUCGAAAAGACAGUCGAACGAGAAGGCACAUGAGGAUCACCCAUGUGAGGG [Mat - Exaclusion 4 - Eli mod - D68]”, the “apparent KD of MS2 coat protein” value turned out to be 79.7 nM in the data set with MS2 coat protein [1] and 122 nM in the data set with MS2 coat protein [2].

For “AUAAUGCGAGGAUAUACAUGAGGAUCACCCAUGUAAAUCAAUAGGAGAGCCACAUUAAGUAGAAGGUGCAUUAA [JR_Exc003_Sub502]”, the “apparent KD of MS2 coat protein” value is 20.4 nM in the data set with MS2 coat protein [1] and 49.1 nM in the data set on MS2 coat protein [2].

For the sequence “AUACGCUGAGGAUAUACCGAAACAACAUCCUCGUGUAUAAUACAUGAGGAUCACCCAUGUAGAAGGCAGUAAAA [Usmaan]”, the “apparent KD of MS2 coat protein” value is 46.2 nM with MS2 coat protein [1] and 85.5 nM in the data set on MS2 coat protein [2].

Turning to “AUAGUACAUGAGGAUCACCCAUGUCAGGAUAUUCGAAACGAAAAAAAAAAAAAGUGAAGGAGAAGGGACUAUAA [EX1 Malc#10]”, the “apparent KD of MS2 coat protein” value with MS2 coat protein [1] stood at 17.5 nM; with MS2 coat protein [2], 21.1 nM.

In the case of “AUAGUACAUGAGGAUCACCCAUGUCAGGAUAUUGGAUAUGAAAAAAAAAAAAAGUUAACGAGAAGGGACUAUAA [EX1 Malc#14]”, the entries for the “apparent KD of MS2 coat protein” value with MS2 coat protein [1] and with MS2 coat protein [2] were 28.5 nM and 33.6 nM, respectively.
